# Data published in the DeepSol protein solubility set.
# Test: soluble on expression in E. coli; label from the status in PepcDB or PDB records
row,Sequence,soluble on expression in E. coli
1,MGSDKIHHHHHHMLEQFHIHADLKQQLSTIHEKNKQEAGENAHLIGTKIYKASDNSIIEDAITALLLGKNILLKGPTGSGKTVLAETLSSLFQKPMHSINCSVDLDVEGILGYNTLQTKDGASEVAFVNGPLMKAMKNGHFLYIDEINMAKPETLPLLHGALDYRKMITNPFTQEVVYGDDEYRVIAAINEGYVGTSELNEALKNRFVIIEVPYIQGDTLKELLLAESKLNDVTTIEKFVAFASDLMPLARDGRVSEEAASIRGIIDACDLGVYIPVMRAIERSIIAKLNDETEQMTVRELAESYFFEG,not soluble
2,MSLTNITQCKNRRCGGELGDFTGYIESPNYPGNYPANTECTWTINPPPKRRILIVVPEIFLPIEDDCGDYLVMRKTSSSNSVTTYETCQTYERPIAFTSRSKKLWIQFKSNEGNSARGFQVPYVTYDEDYQELIEDIVRDGRLYASENHQEILKDKKLIKALFDVLAHPQNYFKYTAQESREMFPRSFIRLLRSKVSRFLRPYKEGHHHHHH,not soluble
3,MGDDLPDWRNKLEPVFLEFEDGCVPEEHYYPCIRRREDEEPKISAEEEYYLMVKEVEDSKGFDIDFAKFRCVFNYRPVDLDDNELALEPETTREFMDRLCRKSLEHFNEIHSTKYEFVRFIKANHHVSAGMMYFITFEGKLLSNDDDSKQFQAKLCYCGGTPEIISCELKP,soluble
4,MPIMSIISCKIMQDEIIWILENDSSIDETIIIDSENILEFVEKLDKVNLQYKVLSLEDISSLAEIRSECKNYTVMIHLMELGLHRSPKELKIKVYETIKTLAPFSSGILLFYGLCGNVLGDVEKDFERSSTSCPVRILKDKDHRIVDDCIGATVGGVNNYLRILKSVSDAGTYLFTPMYSKGWRELLDLNKLNKDPSKALKLMKKTHEMIGYKRVAKINTGLEYTENFDASIQEFAELFDFEILEFDDGNQKIFEDCYNELKAELLEHHHHHH,not soluble
5,MLFFSSAMSKHKLTFTKLSDCMKYLDLAATWAEEEWGYIRNKGLEFRKKILSDLKEHTYIGTFNGQPIAMFVLFDKEMSPEFNHGRFKPPVVNELMYVYIDKPYRGLGFGKQIIDEAKQLASDSKSEYIMLDTLKPGLNRFYEKSGAKVIAENQLFSHPTDVLTIKI,not soluble
6,MFQIGEALMGQGSELAHVDLMIGDKGGPVGQAFANGLTQLSAGHTPLLSVIRPNLPPKPSTLIIPKVTVKNMDQAARIFGPAQSAVAKAVADSVEEGVIPKDQVEDLVIVASVFIHPEAQDYNKIYRYNYGATKLAIKRALEGFPDIDTVLEESNKSTHAIMGFKVTRLWDPPYLQIAFDNPNLEFVLSAISEIPKSDHVIIEAGTPLIKRYGTDVISKIRQVRPDAFIVADLKTLDTGNLEARMVADAAGDAIVVSALAPISTIDKLIEEAHKTGIYAVMDTLNQQDPISVLKQLKVMPDVIELHRGIDIEGTEHAWGNIGEIKKIAPKALVAVAGGVRLDKVPVALSQGADILVVGRAITNAKDVREMAEQFINSLNKPEIDQFRVMTDF,not soluble
7,SQILDRKGRLIANIYDKEFRFYARFEEIPPRFIESLLAVEDTLFFEHGGINLDAIMRAMIKNAKSGRYTEGGSTLTQQFVKNMVLTREKTLTRKLKEAIISIRIEKVLSKEEILERYLNQTFFGHGYYGVKTASLGYFKKPLDKLTLKEITMLVALPRAPSFYDPTKNL,not soluble
8,MGSDKIHHHHHHMSKTLSILVLHRVPFENVGYDQVIDHDLHQVTYLGLASPMSKLPKDLPCHKVVIEQLDLLVDSAVALTQEQGIEFDYIIGVSEYQLFDAALIRERLNIQGPKPHDVLRVRDKLVMKHQVQAAGLHVPRFFELAEVMTQELTGLQQLILKPKDGASSENVIKYADLEALRSAITSSATGIPVLDNDKNFKNFEVEEFVEGPILHLDGIVQGGVIDTFVASTYEGTCLAFAEGEALGSYQIQTEPRLMDWAQAVITALAIDSGAFHLEVIESGERLVFLEIGHRAGGANVVRTFELRTGINLHHANLATQLRLPIHRQEVNTHKSYGWFVFPGHHYDWDKCRLEGHEDIKIHHQMFEWNQLSNEQPLTKHITYQKKEVPAAGIIQGDDSIQVQNFMQRVLQYIQVQEAV,not soluble
9,MSSIKTSPTKKTSESTTKQDTPNDQTNIENFDEEPSMLSDPEDYLEENETLDMNLSKGDQKVWLVKLPKYLMDDWSNPDSMNGQQLGNVKIKKDARGKLQVKLLLDNKNDRIPKEYDIKMLNTQVRNSYVFTEENLKKFKQEVTEVSDMPEQPQLKELNPEKKKFQVRRKFKYFRVQKEGENGQPVKKYIPFVKTIPKKTSLMGKVCHDCTVVPARTGSKHGESLMKHQNMTQGKERPKVTLLNEIPGVIQSNAGPSIKGNAASIFLKSTQGKNKSEGRTIRMPKKDLLDLLFRLFEEYEYWSMKGLKERTRQPESYLKESLESIATLIKRGPYTSKYTLKAEYRRLRDAERAVRLGLDEDDQNKENNEDEDEDEEMEDVV,soluble
10,MSLSHVLQELRDVRQASHKVSQGARVLFPCELLSALSLLQTSAQASYQAVVETGLGLARGLREQILKAAAILGVADPSGIYIQPEDEHRLDVVGRLFEAMLRDSCLYPQSRVWIGHLLVPVAKVALRDSCLLETDHHPVWRLLMLLVDACNGNKGEDPAEHALLMQVRETVETVVREFDDDVTLFQTQQAALSMHYEQYVAKTRNTQRHVAECEITEERRQQAQRVADDALKQCLLGHVLPQQIEHFLRRIWCAHVQQVALLNDDNGQALKAVLALGDALLVQWRQASEGSIPERPWLYEERAGILEAFCIAGMTLVEAEAGFANLQHVLAAATPQSSVIATSTQTQSFDTFISVPDTSATSELNTASPSYFRELPLGTWLDFIGIDGRIQSGQLSWVSPISGRLMFVNHRGRRLCVTAPEELSTLMCLGRLRLHRAGDSLMSEGHHHHHH,not soluble
11,MSLSTLQDLEKTLWATADKMRANMDPAEYKHIVLGLIFLKYISDSFAGRRAELERKFSDAGDDYYLGGDDPTYLASELEERDYYKEVNVFWVPEPARWESLRAAAKQVDIGKRIDDALADIEAENPQLKNILDKRYARAQLPDGKLGELVDMISIIGFSSDANKARDLLGQVYEYFLGQFASAEGKRGGQFYTPASIVKTLVAVLNPHHGKVYDPCCGSGGMFVQSEKFIEAHGGKLGDVSIYGQESNPTTWRLAAMNLAIRGMDFNLGKEPADSFIRNQHSDLRADFVLANPPFNISDWWHGSLDGDSRWVYGTPPQGNANYAWLQHMLFHLKSSGRAGIVLANGSMSSSQNSEGDIRRAMVEADVVEVMVALPGQLFFNTQIPACLWFLAKQKNKRPGEVLFIDARKLGTNISRVQIELLDSDIESIAQTVANWRGVPLEVDGEIAEYADVAGFCRSVPLAEIAEHGHVLTPGRYVGAEAVEEGHHHHHH,not soluble
12,MPPPGIPPPFPPMGLPPMSQRPPAIPPMPPGILPPMLPPMGAPPPLTQIPGMVPPMMPGMLMPAVPVTAATAPGADTASSAVAGTGPPRALWSEHVAPDGRIYYYNADDKQSVWEKPSVLKSKAELLLSQCPWKEYKSDTGKPYYYNNQSKESRWTRPKDLDDLEVLVKQEAAGKQQQQLPQTLQPQPPQPQPDPPPVPPGPTPVPTGLLEPEPGGSEDCDVLEATQPLEQGFLQQLEEGPSSSGQHQPQQEEEESKPEPERSGLSWSNREKAKQAFKELLRDKAVPSNASWEQAMKMVVTDPRYSALPKLSEKKQAFNAYKAQREKEEKEEARLRAKEAKQTLQHFLEQHERMTSTTRYRRAEQTFGELEVWAVVPERDRKEVYDDVLFFLAKKEKEQAKQLRRRNIQALKSILDGMSSVNFQTTWSQAQQYLMDNPSFAQDHQLQNMDKEDALICFEEHIRALEREEEEERERARLRERRQQRKNREAFQTFLDELHETGQLHSMSTWMELYPAVSTDVRFANMLGQPGSTPLDLFKFYVEELKARFHDEKKIIKDILKVNTAFEDFAHVISFDKRAAALDAGNIKLTFNSLLEKAEAREREREKEEARRMRRREAAFRSMLRQAVPALELGTAWEEVRERFVCDSAFEQITLESERIRLFREFLQVLEQTECQHLHTKGRKHGRKGKKHHHKRSHSPSGSESEEEELPPPSLRPPKRRRRNPSESGSEPSSSLDSVESGGAALGGRGSPSSHLLGADHGLRKAKKPKKKTKKRRHKSNSPESETDPEEKAGKESDEKEQEQDKDRELQQAELPNRSPGFGIKKEKTGWDTSESELSEGELERRRRTLLQQLDDHQ,soluble
13,MAKRKLTQNQTRRIQSNNAKTLHRHKKKEIEWSDEMLGESQEGVVVTRYSIHADVENEQGEIYRCNLRRTLSSLVVGDKVVWRKGNEQLQGVSGVIEAIHPRENEISRPDYYDGLKPIAANIDRIIIVSAVLPTLSLNIIDRYLVVCEIAGITPLIVLNKVDLLAQEQRQEIEDQLKIYQDIGYEILMISAKSGENMEKLTALLAQGTAIFVGQSGVGKSSLINHILPSVNAQVGDVSETSGLGQHTTTSSRLYHLPQGGNLIDSPGIREFGLWHLDAEQITKGYREFQYVLGTCKFRDCKHLSDPGCALREAVEQGKISPVRYDNYHRLIESLSETKSQRHFSLV,not soluble
14,MLRVLVRTGSEACRAVSTSTAVLSVHPVVKSEDLSAKEIWDRRSKLRVPKLQKDEQLSSKVYFAPEWDLEKKPNLDEGFVNPLKGYGMTPEKWEYYNKVVWPPNYIVPETGLPKPKEVFHCKESVHFSPKRMWAACQLVWKMNVDEAITQLDMQQLKACNLLMDTIKKAKSRAADEFHIEYPSQMYVADAFPVQSNIVKGARRHAHDNWNTIRYRYIHIFVRLEEGPAPQQKQRHPQKNGWDHMDEYYNYLRSRTVKYSI,not soluble
15,TLLHPLLMRNGDSRPLHKPTTPLPSLDLLTPPPSEVEPVDTFALEQMARLVEARLADFRIKADVVNYSPGPVITRFELNLAPGVKAARISNLSRDLARSLSTVAVRVVEVIPGKPYVGLELPNKKRQTVYLREVLDNAKFRDNPSPLTVVLGKDIAGEPVVADLAKMPHLLVAGTTGSGASVGVNAMILSMLYKAQPEDVRFIMIDPKMLELSVYEGIPHLLTEVVTDMKDAANALRWCVNEMERRYKLMSALGVRNLAGYNEKIAEADRMMRPIPDPYWKPGDSMDAQHPVLKKEPYIVVLVDEFADLMMTVGKKVEELIARLAQKARAAGIHLVLATQRPSVDVITGLIKANIPTRIAFTVSSKIDSRTILDQAGAESLLGMGDMLYSGPNSTLPVRVHGAFVRDQEVHAVVQDWKARGRPQYVDGITSDSESEGGAGGFDGAEELDPLFDQAVQFVTEKRKASISGVQRQFRIGYNRAARIIEQMEAQGIVSEQGHNGNREVLAPPPFD,soluble
16,MAIIKSPVFKDISEAEISEMTSAGFLRARKFRKKAIIYHVTDIVHEIGIVASGQVTIEYIDMWGNKAIMSNIAPGQVFAETYALSGEPLMVDAVASETSVVLFLNIRKLMDSQPENVHYKDTILNNLLHISIQKNLTLSNRIFCTSPKTIRDRLLIYLSNESRKAGCEEFSIPFDRQQLADYLNVDRTALSKELGKMRDDGLIEFRKNVFHLLSIC,not soluble
17,MGSDKIHHHHHHMLDPRSVPFAAQIHPQARPARRLTWDSREAGPDTAFVALPGEKMHGNRFVERALAAGAPFVLTDLDVPRAVRVDDARGALFAWARSERAKNPLVVGITGSAGKTTAKSYAAAALDAHFMPVFNTMPAIACFLVQYGASQKPLVVEMGIDHIGEMAELMDLVRPDVGVVTTIGPAHLEQFGMVETIAHEKGQILTARRALVGSQAAAFFPKAQFPHVDSYGFGDVTFRGEGLELSPQAARFRFGGMGVILPLASRVQAEAAVLGMVLAREAGIALADAAVRMSAVEVPGGRYRLHPGRFTVIDDAYNASPVAVRAALDALHALKPEGEVGRRISVLGRMLELGPTERELHAEVGSYAREQADLTYGVGEFAQELGERAFATVPELLADLLNEVRDGDIVLVKASRGISLTPEQRAVTGVGLDVVVEALLDQRDR,not soluble
